Results: patent EP4421166A1 (Max-Planck-Gesellschaft zur Förderung der Wissenschaften …, dated 2024)

B1: Hpep1 (peptide)
peptide: ARETFQAFRT
notes: Residues 145-154 of HaloTag; also called original Halo-Peptide; original Hpep (10mer)

What was measured:
[1] = molecular target: T1, cpHaloΔ2; experiment: EC50 of the split-HaloTag labeling reaction (fluorescence polarization)
T1 construct: also called linker04/E20S/N119H/V184E/V197K; improved cpHaloΔ variant

[2] = molecular target: LKPG-cpHaloΔ2-PDYE; experiment: cell-based or functional assay
LKPG-cpHaloΔ2-PDYE, sequence (chain, as listed by the source mutant): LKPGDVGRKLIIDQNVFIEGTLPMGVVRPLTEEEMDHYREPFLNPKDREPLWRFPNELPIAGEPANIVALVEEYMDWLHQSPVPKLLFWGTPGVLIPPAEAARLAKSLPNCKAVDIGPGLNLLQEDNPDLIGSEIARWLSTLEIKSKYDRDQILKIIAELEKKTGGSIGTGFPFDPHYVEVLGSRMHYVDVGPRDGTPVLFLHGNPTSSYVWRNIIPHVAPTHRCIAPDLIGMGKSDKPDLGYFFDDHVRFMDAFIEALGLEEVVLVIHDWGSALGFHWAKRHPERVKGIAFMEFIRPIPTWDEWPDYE

[3] = molecular target: T2, cpHaloΔ; experiment: method not stated
T2 construct: Used as purified protein; also called original cpHaloΔ; first partial effector
T2 sequence (chain, as listed by the source mutant): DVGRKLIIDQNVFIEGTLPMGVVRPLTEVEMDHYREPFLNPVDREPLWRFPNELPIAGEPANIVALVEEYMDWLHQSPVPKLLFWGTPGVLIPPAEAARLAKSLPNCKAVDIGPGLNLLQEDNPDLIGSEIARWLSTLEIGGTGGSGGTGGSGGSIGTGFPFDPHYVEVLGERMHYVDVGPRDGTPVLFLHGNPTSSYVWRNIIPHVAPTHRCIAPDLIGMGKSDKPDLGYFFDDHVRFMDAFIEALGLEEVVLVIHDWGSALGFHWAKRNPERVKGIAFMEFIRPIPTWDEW

T1 sequence (chain, as listed by the source mutant): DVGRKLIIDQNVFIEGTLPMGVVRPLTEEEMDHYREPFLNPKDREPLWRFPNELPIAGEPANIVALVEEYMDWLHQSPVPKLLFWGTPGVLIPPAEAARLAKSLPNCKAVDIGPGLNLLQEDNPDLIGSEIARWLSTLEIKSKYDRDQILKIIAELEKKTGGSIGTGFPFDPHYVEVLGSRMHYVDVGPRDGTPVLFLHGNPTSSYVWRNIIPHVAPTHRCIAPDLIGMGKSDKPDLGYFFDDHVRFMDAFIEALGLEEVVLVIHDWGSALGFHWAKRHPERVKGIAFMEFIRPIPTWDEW

| Binder | binding result [1] | EC50 of the labeling reaction [2] [pM] | fold lower EC50 than cpHaloΔ2 [2] [fold] | Kd [3] [mM] |
| --- | --- | --- | --- | --- |
| RGWSWREMFRLFRT [Hpep RGWSWREMFRLFRT] | binds | 382 | 6.6 | – |
| RQWSWREMFRLFRT [Hpep RQWSWREMFRLFRT] | binds | – | – | – |
| RMWTWREMFRLFRT [Hpep RMWTWREMFRLFRT] | binds | – | – | – |
| B1 | – | – | – | 4.6 |
